Assay [1] addresses T1, mouse 4-1BB expressed on transduced BJAB cells (mouse, UniProt P20334 24-256).
T1 construct: whole, on cells; also called m4-1BB; 4-1 BB-IRES-GFP
T1 sequence (looked up): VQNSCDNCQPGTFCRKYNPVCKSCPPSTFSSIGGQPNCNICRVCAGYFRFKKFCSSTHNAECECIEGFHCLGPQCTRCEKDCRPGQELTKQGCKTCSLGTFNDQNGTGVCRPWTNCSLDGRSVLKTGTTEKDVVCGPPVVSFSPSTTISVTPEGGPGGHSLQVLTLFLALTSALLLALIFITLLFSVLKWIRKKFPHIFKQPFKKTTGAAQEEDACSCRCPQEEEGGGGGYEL
The assay can be described thus: flow cytometry on transduced BJAB cells. The text has this: (§1) FIG. 36 HVEM is a ligand for BTLA. (A) NIH 3T3 cells and BJAB cells were transduced with splenocyte cDNA libraries and were directly stained with anti-Thy1.1-FITC and the C57BL/6 BTLA tetramer-phycoerythrin (Before sorting). These cells were sorted for the highest 0.5% population of BTLA tetramer staining with BTLA-phycoerythrin tetramer and Thy1.1-FITC and were subjected to an additional three rounds of similar sequential purification. After the fourth round of sorting, cell populations were expanded and cells were stained (After sorting). Numbers in each quadrant indicate the percentage of live cells in the indicated gate. (B) BJAB cells were transduced with the retroviruses mHVEM-IRES-GFP (mHVEM; mouse), hHVEM-IRES-GFP (hHVEM; human), 4-1 BB-IRES-GFP (4-1 BB; mouse) and LTβR-1RES-GFP (LTβR; mouse) and were stained with C57BL/6 BTLA tetramer-phycoerythrin or BALB/c BTLA tetramer-phycoerythrin. Numbers in dot plots indicate the percentage of BTLA tetramer staining in the GFP-positive population. (C, D) HVEM activates BTLA phosphorylation and SHP-2 association. EL-4 cells (EL4), BJAB cells expressing GFP (BJAB-GFP) or BJAB cells expressing mouse HVEM (BJAB-mHVEM) were added (+) or not added (−) for 4 min at 37° C. at a density of 25×10⁶ cells/ml. Cells were left untreated (−) or were treated (+) with pervanadate (VO₄) for 4 min. Total cell lysates were prepared and were immunoprecipitated with 6A6 (anti-mouse BTLA), and immunoblots were probed for SHP-2 (C) or for phosphotyrosine (D) in immunoprecipitates (IP) or in lysates without immunoprecipitation. Immunoblots using the isotype control for immunoprecipitation were negative for SHP-2 association (data not shown). Data in C and d are representative of four independent experiments. (E) BJAB cells were transduced with retrovirus mHVEM-ires-GFP or hHVEM-ires-GFP and were stained with human IgG1 isotype control (hIgG1), mB7x-Fc, mBTLA-Fc or hBTLA-Fc followed by anti-human IgG-phycoerythrin. Numbers in dot plots show the percentage of fusion protein staining in the GFP-positive population.
Background: A flow cytometer gives signals particle by particle.

Assay [2] deals with T2, human HVEM expressed on transduced BJAB cells (full length) (human, UniProt Q92956 39-283).
T2 construct: also called hHVEM; hHVEM-IRES-GFP
T2 sequence: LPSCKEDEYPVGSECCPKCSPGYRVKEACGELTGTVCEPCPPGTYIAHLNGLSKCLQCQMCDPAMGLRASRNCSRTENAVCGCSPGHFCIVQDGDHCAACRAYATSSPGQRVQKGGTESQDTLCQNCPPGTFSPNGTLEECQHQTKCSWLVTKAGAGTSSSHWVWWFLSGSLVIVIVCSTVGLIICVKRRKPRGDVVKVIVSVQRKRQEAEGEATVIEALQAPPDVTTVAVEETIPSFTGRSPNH
The assay can be described thus: flow cytometry on transduced BJAB cells.
Source text: as §1

The target in assay [3] is T3, mouse LTβR expressed on transduced BJAB cells (mouse, UniProt P50284 31-415).
T3 construct: whole, on cells; also called LTI3R; mLT R
T3 sequence (P50284 31-415): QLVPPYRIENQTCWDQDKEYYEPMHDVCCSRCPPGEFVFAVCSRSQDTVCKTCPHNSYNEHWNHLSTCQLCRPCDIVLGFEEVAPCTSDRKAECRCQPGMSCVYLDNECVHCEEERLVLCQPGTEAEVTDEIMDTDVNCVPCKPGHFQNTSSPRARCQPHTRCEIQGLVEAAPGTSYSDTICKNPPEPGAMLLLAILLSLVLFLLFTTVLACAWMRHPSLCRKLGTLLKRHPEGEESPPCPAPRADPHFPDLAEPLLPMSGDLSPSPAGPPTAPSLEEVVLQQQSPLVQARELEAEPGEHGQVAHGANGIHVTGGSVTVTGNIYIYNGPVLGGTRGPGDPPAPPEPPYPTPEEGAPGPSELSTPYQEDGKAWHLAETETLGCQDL
Kind of assay: flow cytometry on transduced BJAB cells.
Source text: as §1

The target of assay [4] is T4, PD-L1 expressed on NIH 3T3 cells (UniProt Q9EP73 19-265, limits assumed).
T4 construct: domain: extracellular domains; also called PD-L1-GFP
T4 sequence (Q9EP73 19-265 limits assumed): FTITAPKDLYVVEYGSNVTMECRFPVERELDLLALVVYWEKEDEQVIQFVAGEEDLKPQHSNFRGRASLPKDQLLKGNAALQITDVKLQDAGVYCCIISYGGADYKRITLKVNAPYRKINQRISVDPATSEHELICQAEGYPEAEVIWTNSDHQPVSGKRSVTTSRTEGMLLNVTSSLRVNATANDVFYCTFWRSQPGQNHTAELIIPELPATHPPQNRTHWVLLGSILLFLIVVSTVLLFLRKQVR
The assay can be described thus: flow cytometry on NIH 3T3 transfectants. The source says:
(§2) To test for direct interactions between BTLA and B7x, we made NI H 3T3 cell lines stably expressing the extracellular domains of B7x, BTLA, and programmed death 1 (PD-1) and its ligand (PD-L1), and stained the cells with PD-1 and BTLA tetramers and with PD-L1 and B7x Fc fusion proteins.

The target of assay [5] is T5, B7x extracellular domain expressed on NIH 3T3 cells (mouse, UniProt Q7TSP5 25-257).
T5 construct: also called B7x-B7h-GFP; not shown: B7h transmembrane and cytoplasmic domains fused to GFP
T5 sequence: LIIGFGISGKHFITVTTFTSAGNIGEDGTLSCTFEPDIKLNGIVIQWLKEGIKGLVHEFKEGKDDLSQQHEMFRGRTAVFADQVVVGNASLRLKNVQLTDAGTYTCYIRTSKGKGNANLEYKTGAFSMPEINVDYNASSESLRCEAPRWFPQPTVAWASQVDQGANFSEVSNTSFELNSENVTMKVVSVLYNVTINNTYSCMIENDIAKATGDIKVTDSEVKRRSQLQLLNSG
The assay can be described thus: flow cytometry on NIH 3T3 transfectants.
Source text: as §2

Assay [6] addresses Grb2 (UniProt P62993 1-217). Kind of assay: co-immunoprecipitation.
Assay [7] concerns the target SHP-1 (UniProt P29350 1-595). The assay can be described thus: co-immunoprecipitation.
The target in assay [8] is T6, SHIP (UniProt Q92835 1-1189, limits assumed).
T6 sequence (looked up): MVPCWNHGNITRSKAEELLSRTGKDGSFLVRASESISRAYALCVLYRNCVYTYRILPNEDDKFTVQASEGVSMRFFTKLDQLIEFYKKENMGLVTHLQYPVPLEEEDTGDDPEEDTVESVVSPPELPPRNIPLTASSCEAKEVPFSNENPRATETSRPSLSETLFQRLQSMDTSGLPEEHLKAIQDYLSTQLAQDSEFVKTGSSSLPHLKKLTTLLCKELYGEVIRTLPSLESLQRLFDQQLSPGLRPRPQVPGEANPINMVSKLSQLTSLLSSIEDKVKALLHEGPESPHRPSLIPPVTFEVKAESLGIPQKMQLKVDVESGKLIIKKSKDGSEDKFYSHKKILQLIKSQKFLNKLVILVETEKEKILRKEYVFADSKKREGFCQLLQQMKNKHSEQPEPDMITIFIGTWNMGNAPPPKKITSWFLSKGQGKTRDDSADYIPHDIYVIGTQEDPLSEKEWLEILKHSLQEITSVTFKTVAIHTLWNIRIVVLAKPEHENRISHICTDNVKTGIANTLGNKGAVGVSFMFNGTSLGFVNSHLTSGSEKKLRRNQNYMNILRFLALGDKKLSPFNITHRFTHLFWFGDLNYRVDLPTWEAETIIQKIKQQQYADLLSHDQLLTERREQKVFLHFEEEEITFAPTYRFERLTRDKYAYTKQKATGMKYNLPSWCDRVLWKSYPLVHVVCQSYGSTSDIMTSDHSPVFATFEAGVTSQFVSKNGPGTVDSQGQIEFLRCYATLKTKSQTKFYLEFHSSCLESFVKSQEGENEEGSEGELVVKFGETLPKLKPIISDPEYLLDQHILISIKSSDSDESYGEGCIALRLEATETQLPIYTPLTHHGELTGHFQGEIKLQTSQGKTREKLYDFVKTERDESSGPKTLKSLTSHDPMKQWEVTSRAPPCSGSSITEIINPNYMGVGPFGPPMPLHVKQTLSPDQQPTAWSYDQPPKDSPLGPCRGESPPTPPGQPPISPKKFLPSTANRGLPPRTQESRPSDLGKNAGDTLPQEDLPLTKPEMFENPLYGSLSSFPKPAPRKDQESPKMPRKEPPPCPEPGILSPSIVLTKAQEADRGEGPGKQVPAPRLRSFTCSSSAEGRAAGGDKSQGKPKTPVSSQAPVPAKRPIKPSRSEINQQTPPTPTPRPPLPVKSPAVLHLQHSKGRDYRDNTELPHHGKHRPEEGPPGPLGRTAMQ
Kind of assay: co-immunoprecipitation.

The target of assay [9] is T7, C57BL/6 allele of mouse BTLA expressed on transfected cells as a GFP fusion protein (mouse, UniProt Q7TSA3 30-306).
T7 construct: also called BJAB.B6 BTLA-GFP; C57BL/6 BTLA; not shown: GFP without its start codon
T7 sequence: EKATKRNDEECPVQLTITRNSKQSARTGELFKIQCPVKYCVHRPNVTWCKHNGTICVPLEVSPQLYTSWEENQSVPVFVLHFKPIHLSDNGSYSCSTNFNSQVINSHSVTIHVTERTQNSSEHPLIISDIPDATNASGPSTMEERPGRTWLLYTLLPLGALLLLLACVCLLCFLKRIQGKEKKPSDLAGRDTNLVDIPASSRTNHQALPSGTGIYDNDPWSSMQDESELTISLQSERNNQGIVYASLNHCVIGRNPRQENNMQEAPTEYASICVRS
The assay can be described thus: flow cytometry on NIH 3T3 transfectants.
Source text: as §2

SHP-1, sequence (P29350 whole entry): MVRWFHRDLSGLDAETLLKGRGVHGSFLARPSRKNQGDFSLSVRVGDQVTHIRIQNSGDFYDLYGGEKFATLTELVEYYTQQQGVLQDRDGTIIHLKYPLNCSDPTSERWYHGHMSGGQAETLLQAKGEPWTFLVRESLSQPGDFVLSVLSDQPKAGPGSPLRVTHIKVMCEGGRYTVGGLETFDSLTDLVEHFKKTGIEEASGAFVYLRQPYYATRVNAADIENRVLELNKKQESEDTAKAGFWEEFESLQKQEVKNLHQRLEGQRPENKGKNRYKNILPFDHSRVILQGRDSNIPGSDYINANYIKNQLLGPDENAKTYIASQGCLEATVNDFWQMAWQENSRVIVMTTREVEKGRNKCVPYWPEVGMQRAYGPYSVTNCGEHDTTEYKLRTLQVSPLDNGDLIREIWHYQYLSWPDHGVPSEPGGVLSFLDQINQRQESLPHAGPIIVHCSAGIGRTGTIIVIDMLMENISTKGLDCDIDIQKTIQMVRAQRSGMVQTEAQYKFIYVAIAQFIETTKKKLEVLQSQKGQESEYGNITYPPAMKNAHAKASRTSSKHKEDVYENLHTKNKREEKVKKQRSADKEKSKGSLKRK
Grb2, sequence (P62993 whole entry): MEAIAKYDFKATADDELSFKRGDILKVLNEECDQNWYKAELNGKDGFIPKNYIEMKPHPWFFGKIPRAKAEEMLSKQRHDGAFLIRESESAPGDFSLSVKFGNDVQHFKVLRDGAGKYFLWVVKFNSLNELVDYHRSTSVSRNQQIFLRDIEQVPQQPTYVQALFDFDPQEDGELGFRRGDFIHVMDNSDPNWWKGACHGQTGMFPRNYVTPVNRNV

B1: C57BL/6 BTLA tetramer-phycoerythrin (other)
chain: EKATKRNDEECPVQLTITRNSKQSARTGELFKIQCPVKYCVHRPNVTWCKHNGTICVPLEVSPQLYTSWEENQSVPVFVLHFKPIHLSDNGSYSCSTNFNSQVINSHSVTIHVTERTQNSSEHPLIISDIPDATNASGGGLNDIFEAQKIEWHE
modifications: biotinylated in vitro with BirA ligase on the C-terminal BirA sequence; bound to streptavidin-phycoerythrin
notes: also called B6-BTLA pET28 product
On to B1, for which the binding result in assay [1], in assay [2] and in assay [3] was “no binding” throughout.

B2: human BTLA-Fc fusion protein (Fc fusion)
chain: KESCDVQLYIKRQSEHSILAGDPFELECPVKYCANRPHVTWCKLNGTTCVKLEDRQTSWKEEKNISFFILHFEPMLPNDNGSYRCSANFQSNLIESHSTTLYVTDVKGASERPSKDEVA
notes: Used as 1 ml of supernatant for staining; also called hBTLA-Fc; not shown: Fc-αTP part of the CD47-Fc-αTP-ires-GFP-RV vector (detected with anti-human IgG)
As to B2, the binding result in assay [2] is listed as “binds”.

B3: mouse BTLA-Fc fusion protein (Fc fusion)
chain: EKATKRNDEECPVQLTITRNSKQSARTGELFKIQCPVKYCVHRPNVTWCKHNGTICVPLEVSPQLYTSWEENQSVPVFVLHFKPIHLSDNGSYSCSTNFNSQVINSHSVTIHVTERTQNSSEHPLIISDIPDATNAS
notes: also called mBTLA-Fc; not shown: Fc-αTP part of the CD47-Fc-αTP-ires-GFP-RV vector (detected with anti-human IgG)
Regarding B3, the binding result in assay [2] is reported as “no binding (tested: 200 ng of purified Fc-fusion protein)”.

B4: mouse BTLA tetramer (allele not stated at these places) (other, UniProt Q7TSA3 30-166, looked up)
chain: EKATKRNDEECPVQLTITRNSKQSARTGELFKIQCPVKYCVHRPNVTWCKHNGTICVPLEVSPQLYTSWEENQSVPVFVLHFKPIHLSDNGSYSCSTNFNSQVINSHSVTIHVRERTQNSSEHPLITVSDIPDATNA
modifications: biotinylated; bound to streptavidin-phycoerythrin
notes: domain: BTLA Ig domain; also called BTLA tetramers; tetramers of mouse BTLA
Regarding B4, the binding result in assay [2], in assay [4] and in assay [5] was “no binding” each time.

B5: Myc-tagged full length human BTLA, tyrosine-phosphorylated (pervanadate) (receptor)
chain: KESCDVQLYIKRQSEHSILAGDPFELECPVKYCANRPHVTWCKLNGTTCVKLEDRQTSWKEEKNISFFILHFEPMLPNDNGSYRCSANFQSNLIESHSTTLYVTDVKGASERPSKDEVASRPWLLYSLLPLGGLPLLITTWFCLFCCLRRHQGKQNELSDTAGREINLVDAHLKSEQTEASTRQNSQVLLSEAGIYDNDPDLCFRMQEGSEVCSNPCLEENKPGIVYASLNHSVIGLNSRLARNVKEAPTEYASICVRS
modifications: tyrosine-phosphorylated after pervanadate treatment (Y226, Y257, Y282 are the tyrosines studied)
notes: Expressed in Jurkat T cells; also called myc-hBTLA; Myc3-hBTLA; not shown: triple Myc tag inserted downstream of the signal peptide
For B5, the binding result in assay [6], in assay [7] and in [8] was “no binding” in each case.

B6: BALB/c BTLA tetramer-phycoerythrin (other)
chain: DEECEVQLNIKRNSKHSAWTGELFKIECPVKYCVHRPNVTWCKHNGTIWVPLEVGPQLYTSWEENRSVPVFVLHFKPIHLSDNGSYSCSTWFWSQVINSHSVTIHVR
modifications: biotinylated in vitro with BirA ligase; bound to streptavidin-phycoerythrin
notes: also called BALB-BTLA pET28 product; not shown: biotinylation tag of the MLL1-pET28 vector
With B6, the binding result in assay [1], in [2] and in assay [3] was “no binding” in each case.

B7: mB7x-Fc fusion protein (Fc fusion)
chain: T5 sequence
notes: not shown: Fc-αTP part of the CD47-Fc-αTP-ires-GFP-RV vector (detected with anti-human IgG)
On to B7, for which the figures for the binding result in assay [2] and in [9] were “no binding (tested: 200 ng of purified Fc-fusion protein)” and “no binding”, respectively.

Source of the values: patent US20120207759A1 (WASHINGTON UNIVERSITY, published 2012).
